From patent US20170204454A1 (THERMO FISHER SCIENTIFIC BALTICS UAB, published 2017)

How the values were obtained:
[1] = target: T1, Pyrococcus DNA polymerase with a sequence non-specific DNA binding domain (Pyrococcus); experiment: indirect ELISA, apparent dissociation constant
T1 construct: It was the immunogen and the ELISA and Western blot antigen; also called Pyrococcus DNA polymerase-DBD
T1 chain: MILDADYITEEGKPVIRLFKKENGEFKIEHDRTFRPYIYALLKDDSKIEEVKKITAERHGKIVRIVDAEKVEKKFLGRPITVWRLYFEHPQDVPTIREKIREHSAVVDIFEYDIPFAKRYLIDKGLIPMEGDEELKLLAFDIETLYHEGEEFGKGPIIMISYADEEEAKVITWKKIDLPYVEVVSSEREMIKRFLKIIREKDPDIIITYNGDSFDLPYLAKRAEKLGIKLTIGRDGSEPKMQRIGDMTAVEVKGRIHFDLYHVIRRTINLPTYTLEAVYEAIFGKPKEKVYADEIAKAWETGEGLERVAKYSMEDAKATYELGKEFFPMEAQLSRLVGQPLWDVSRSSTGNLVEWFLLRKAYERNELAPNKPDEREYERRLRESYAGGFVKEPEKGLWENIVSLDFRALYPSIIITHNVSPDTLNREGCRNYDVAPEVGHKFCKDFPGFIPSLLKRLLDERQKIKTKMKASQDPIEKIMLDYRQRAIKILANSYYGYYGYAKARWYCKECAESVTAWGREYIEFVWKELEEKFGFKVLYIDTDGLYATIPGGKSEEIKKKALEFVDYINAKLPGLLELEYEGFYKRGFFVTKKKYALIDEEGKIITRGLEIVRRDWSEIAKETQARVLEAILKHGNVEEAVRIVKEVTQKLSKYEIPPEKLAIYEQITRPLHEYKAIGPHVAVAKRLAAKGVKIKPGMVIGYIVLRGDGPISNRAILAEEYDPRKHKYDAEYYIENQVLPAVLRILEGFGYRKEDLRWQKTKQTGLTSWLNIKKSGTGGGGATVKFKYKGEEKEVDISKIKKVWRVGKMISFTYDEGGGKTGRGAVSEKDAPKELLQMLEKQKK
Method: The affinity of monoclonal antibodies was determined by measuring their apparent dissociation constants (kD) by an indirect ELISA (Table 2).

[2] = target: T1, Pyrococcus DNA polymerase with a …; experiment: cell-based or functional assay

B1: 5D3 (antibody, V domains shown)
VH: SGPGLVAPSQSLSITCTVSGFSLTDYGVSWVRQSPGQGLEWLGIIWGDGSTDYHSSLISRLRISKDNSKSQVFLKLNSLQTDDTATYYCARPVIGNYAMDYWGQG
VL: TQSPASLAVSLGQRATISCRASESVEYYGTRLMQWYQQKPGKAPKLLIYGASNVESGVPARFSGSGSGTDFSLNIHPVEEDDFAMYFCQQSRKVPWTFGGG
notes: also called 5D3 antibody
With B1 the Kd [1] was 0.29 nM, the “Inhibition of exonuclease activity” value [2] was 71 molar ratio enzyme:antibody (1:x) and the “Inhibition of polymerase activity” value [2] was 20 molar ratio enzyme:antibody (1:x).
